Assay results reported in patent US12617827B2, “Self-assembling peptide” (NATIONAL UNIVERSITY CORPORATION TOKYO MEDICAL AND DENTAL …, priority 2020, dated 2026).
Read-outs that look alike come from different tables or passages of the source.

Tests used:
[1] = biological target: RADA16 peptide, as RADA16 peptide gel; experiment: incorporation into the peptide gel; unincorporated fraction in PBS washes measured by sandwich ELISA
[2] = Rheological property of the peptide gel (rheometer, storage elastic modulus G′ and loss elastic modulus G″); assay type: physicochemical; conditions: peptide concentration 1.0% by weight
Protocol: Among gels having a concentration of 1.0% by weight prepared in Example 1, gels formed by six types of peptide samples as examples: […] peptide (SEQ ID NO: 1), […] peptide (SEQ ID NO: 2), […] peptide (SEQ ID NO: 4), […] peptide (SEQ ID NO: 5), […] peptide (SEQ ID NO: 6), and […] peptide (SEQ ID NO: 8) were subjected to measurement of the rheological property thereof.
The rheological property was measured for 250 μL of a sample with a rheometer (Malvern Panalytical, Kinexus lab+). Specifically, the sample was sandwiched at a gap of 0.2 mm between plates, and subjected to measurement at 20° C.
The storage elastic modulus G′ and the loss elastic modulus G″ of a gel formed by each peptide are obtained by measurement of the rheological property. The storage elastic modulus G′ represents a component stored in an object, of the energy generated by an external force to the object and a strain, and the loss elastic modulus G″ represents a component externally diffused. In a case where a measurement specimen is a gel, the storage elastic modulus G′ generally exceeds the loss elastic modulus G″.

[3] = cited from earlier work
[4] = Fluidity test (gel formation ability) of peptide samples; assay type: physicochemical; conditions: 1.0% by weight in D-MEM (44 mM NaHCO3, pH 7.4), 37°C, CO2 5%, 48 hours
Protocol: A peptide powder after freeze-drying at 2.5 mg and 250 μL of D-MEM (containing 1×penicillin, 4.0 mM HEPES, 44 mM NaHCO3; pH 7.4) were added to a 1-mL microtube (glass container having an inner diameter of 5 mm and a height of 5 cm; Maruemu Corporation, Model No. 1), and ultrasound was irradiated in a water bath type ultrasonic apparatus (AS12GTU, 35 kHz, 60 W), to thereby disperse the peptide at a concentration of 1.0% by weight. Thereafter, the microtube was left to stand in a CO2 incubator (37° C., CO2 concentration 5%) for 48 hours in a state standing vertically with the bottom surface thereof facing downward. Penicillin (Life Technologies Corporation, Model No. 15140148) was used as an antibacterial agent at 100 U/mL for the purpose of prevention of mold generation, and a CO2 incubator was used for performing gelling in a condition similar to an in vivo condition.
In order to test whether the peptide sample lost fluidity and gelled, the sample was sealed in a CO2 incubator (37° C., CO2 concentration 5%) and taken out of the incubator, the microtube was rapidly flipped vertically, and a photograph of the peptide sample was taken and recorded. In a case where a portion or all of the peptide sample remained on the bottom surface side of the microtube, the peptide sample was determined to have lost fluidity and gelled. On the other hand, in a case where all of the peptide sample dropped to the cap side of the microtube, the peptide sample was determined not to have gelled.
Additional five types of peptides: […] (SEQ ID NO: 41), […] (SEQ ID NO: 42), […] (SEQ ID NO: 43), […] (SEQ ID NO: 44), and […] (SEQ ID NO: 45) were synthesized according to the same methods as in (1) to (3) of Example 1, and were subjected to gelling and fluidity test.

[5] = Circular dichroism spectrum of peptide gels; assay type: physicochemical; conditions: 1.0% by weight peptide gel
Excerpt: The “circular dichroism” refers to a phenomenon in which a difference in absorbance occurs between left-handed circularly polarized light and right-handed circularly polarized light when a protein absorbs a circularly polarized light.
Among the peptide gels having a concentration of 1.0% by weight prepared in Example 1, three types of peptides as examples: […] peptide (SEQ ID NO: 4), […] peptide (SEQ ID NO: 2), and […] peptide (SEQ ID NO: 5) were subjected to measurement of circular dichroism spectra at 20° C., 40° C., 60° C., and 80° C. and circular dichroism spectra when re-cooled from 80° C. to 20° C.
The circular dichroism spectrum was measured with a JASCO J-1100 CD Spectrometer by using an assembly cell (GL Sciences, AB20-UV-0.1, cell length 0.1 mm). The measurement range was from 190 to 400 nm, the data-obtaining interval was 0.2 nm, the scanning speed was 200 nm/min, and the specimen concentration was 1.0% by weight. When the circular dichroism spectrum was measured, the temperature was controlled with JASCO temperature regulation unit and a water-cooled Peltier cell holder PTC-514.

[6] = test system: mouse fetus-derived 3T3 cells (NIH3T3 cells); experiment: Evaluation of cell adhesiveness on peptide-coated chamber slide; assay type: cell-based; conditions: 30 minutes on peptide-coated slide, compared with (RADA)4 peptide control
Protocol: A peptide sample having a concentration of 1.0% by weight was prepared by the same method as in Example 1. The peptide sample at 50 μL was dropped on a chamber slide (Merck Millipore, Millicell EZ 8-well glass) and dried under reduced pressure using a centrifugal concentrator (TAITEC CORPORATION, VC-96W), to thereby produce a chamber slide coated with the peptide. After 1.8×10^5 of mouse fetus-derived 3T3 cells (NIH3T3 cells) were suspended in 250 μL of a DMEM medium (containing 44 mM NaHCO3, Gibco, 11995-065) containing 10% serum and seeded onto the chamber slide coated with the peptide, incubation was performed in a CO2 incubator (37° C., CO2 concentration 5%) for 30 minutes. The chamber slide was washed with PBS, and cells not adhering thereto were removed. The adhering cells remaining after the washing were immobilized with 4% PFA, and then subjected to DAPI staining. The number of adhering cells was measured according to stereology as a strict quantitative determination technique which eliminates sampling biases. Specifically, nine frames of 100 μm×100 μm were created in a region of 300 μm×300 μm, and the number of cells in each of the frames was counted. The resulting number of cells was converted into the number of cells in a region of 1 mm×1 mm. In the present Example, a (RADA)4 peptide (SEQ ID NO: 19), which is known to form a cell-adhesive peptide gel, was used as a control.

Substance | gelling (loss of fluidity after vertical flipping of the microtube) [4] | also measured
GFP-RADA16 fusion peptide (from UniProt P42212 1-238) | – | incorporation rate [1]: < 70%
RADARADARADARADA [(RADA)4, reference compound] | – | G' (Pa) ([2]; 2.2% TFA aq.): 265 Pa; G' (Pa) ([3]; pH 3-4, peptide concentration 1.0% by weight): 30^*3 Pa
RIDADMRARIR | gelled | G' (Pa) ([2]; DMEM (pH 7.4), 20°C): 47,500 Pa
RIDARMDARIR | gelled | G' (Pa) ([2]; DMEM (pH 7.4), 20°C): 58,300 Pa; circular dichroism signal (β-sheet structure) [5]: negative cotton effect around 220 nm; cell adhesiveness (number of adhering cells) [6]: comparable with or more than a (RADA)4 peptide
RIDARMRADIR | gelled | G' (Pa) ([2]; DMEM (pH 7.4), 20°C): 21,300 Pa; circular dichroism signal (β-sheet structure) [5]: negative cotton effect around 220 nm; cell adhesiveness (number of adhering cells) [6]: comparable with or more than a (RADA)4 peptide
RIDARMRADMR | gelled | –
RIRADIRADMR | gelled | –
RIRADIRGDIR | gelled | –
RIRADMDARIR | gelled | –
RIRADMRADIR | gelled | G' (Pa) ([2]; DMEM (pH 7.4), 20°C): 4,830 Pa; circular dichroism signal (β-sheet structure) [5]: negative cotton effect around 220 nm; cell adhesiveness (number of adhering cells) [6]: comparable with or more than a (RADA)4 peptide
RIRADMRGDIR | gelled | –
RIRARMDADIR | gelled | G' (Pa) ([2]; DMEM (pH 7.4), 20°C): 6,500 Pa
RIRGDIRADIR | gelled | –
RIRGDIRGDIR | gelled | –
RIRGDMRADIR | gelled | –
RIRGDMRGDIR | gelled | G' (Pa) ([2]; DMEM (pH 7.4), 20°C): 47,800 Pa
RLDLRLALRLDLR [SPG178, known peptide gelling agent] | – | G' (Pa) ([3]; pH 7, peptide concentration 1.0% by weight): 70^*3 Pa; G' (Pa) ([3]; pH 7, peptide concentration 1.5% by weight): 300^*3 Pa
RMDADMRARIR | gelled | –
RMDARIDARIR | gelled | –
RVDVDVRVRVR | did not gel | –
RVDVRVDVRVR | did not gel | –
RVDVRVRVDVR | did not gel | –
RVRVDVDVRVR | did not gel | –
RVRVDVRVDVR | did not gel | –
RVRVRVDVDVR | did not gel | –
